For this series, the system named is MS2 coat protein. Kind of series: apparent KD of MS2 coat protein; designed switch direction (-1 OFF switch, 1 ON switch): -1; higher = weaker reporter binding. In a few lines:
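Designed RNA switches were transcribed on Illumina chips by stalled E. coli RNA polymerase and titrated with SNAP-549-labelled MS2 coat protein from 0.7 or 1.5 nM, doubling to 3 µM. Step length ran from 0.8–1.5 h at the lowest concentration to 10–20 min at the highest. The apparent KD is the median over clusters for each design, from curve-fitted normalised cluster fluorescence.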

The mark [1] stands for this setting: Eterna round: R95, input ligand: FMN 200 uM.
[2] abbreviates: Eterna round: R95, input ligand: microRNA oligo, concentration not stated.
Setting [3] is: Eterna round: R95, input ligand: none.
The mark [4] stands for this setting: input ligand: microRNA oligo, concentration not stated.

Turning to “AGUAACUAUCACGAAAGUGAUAGUUACACAAGCAGUGAAACAUGAGGAUCACCCAUGUCCUCAUAUGCUCGUCUUAU [Sensor 3 - 30] (puzzle: Sensor v3, turn-off variant 2)”, the “apparent KD of MS2 coat protein” value reads like this: under setting [1], 119 nM; under setting [2], 1280 nM; under setting [3], 114 nM.

Regarding “AGUAAGCUAGGAUAUGCUUUGGGAAAGCCUUCCUUCGAUAAACUUGAGGAUCACCCAAGUAGAAGGAGCUAAAU [jl-ex2.4.48 ViennaUCT mod] (Eterna round: R97, puzzle: Exclusion 2)”, the “apparent KD of MS2 coat protein” value came out at 16.7 nM (input ligand: FMN 200 uM) and 16 nM (input ligand: none).

For “AGUACUAACACCGUUGUGUUAGUACAAUAAGCUUGUGAAACAUGAGGAUCACCCAUGUCCUCAUAAGCUCGUCUUAU [salish99_TOv2_r3_071] (puzzle: Sensor v3, turn-off variant 2)”, the “apparent KD of MS2 coat protein” value under setting [1] stood at 16.3 nM, the “apparent KD of MS2 coat protein” value under setting [2] is 784 nM and the “apparent KD of MS2 coat protein” value under setting [3] was 16.2 nM.

In the case of “AGUACUAACACGAAAGUGUUAGUACAAUAAGCUAGUGGAACAUGAGGAUCACCCAUGUCCUCAUUAGCUCGUCUUAU [Mat - Sensor v3 - Turn-off var 2 - D33] (puzzle: Sensor v3, turn-off variant 2)”, the “apparent KD of MS2 coat protein” value under setting [1] is 16.3 nM, the “apparent KD of MS2 coat protein” value under setting [2] is 36.6 nM and the “apparent KD of MS2 coat protein” value under setting [3] was 13.4 nM.

Turning to “AGUACUAACACGAAAGUGUUAGUACUAUAAGCUUGUGAAACAUGAGGAUCACCCAUGUCCUCAUAAGCUCGUCUUAU [Mat - Sensor v3 - Turn-off var 2 - D102] (puzzle: Sensor v3, turn-off variant 2)”, the “apparent KD of MS2 coat protein” value reads like this: under setting [1], 17.3 nM; under setting [2], 780 nM; under setting [3], 17 nM.

Consider “AGUACUAACACGAAAGUGUUAGUACUAUAAGUUUGUGUUACAUGAGGAUCACCCAUGUCCUCAUAAGCUCGUCUUGU [Mat - Sensor v3 - Turn-off var 2 - D95] (puzzle: Sensor v3, turn-off variant 2)”, for which the “apparent KD of MS2 coat protein” value reads like this: under setting [1], 911 nM; under setting [2], 199 nM; under setting [3], 626 nM.

As for “AGUACUAACACGAAAGUGUUUGUACAAUAAGCUUGUGAAACAUGAGGAUCACCCAUGUCCUCAUAAGCUCGUCUUAU [salish99_TOv2_r3_035] (puzzle: Sensor v3, turn-off variant 2)”, the “apparent KD of MS2 coat protein” value by setting is: under setting [1], 17.5 nM; under setting [2], 580 nM; under setting [3], 17.1 nM.

“AGUACUAACACGAUAGUGUUAGUACUAUAAGCUUGUGUUACAUGAGGAUCACCCAUGUCCUCAUAAGCUCGUCUUGA [Mat - Sensor v3 - Turn-off var 2 - D92] (puzzle: Sensor v3, turn-off variant 2)”: the “apparent KD of MS2 coat protein” value reads like this: under setting [1], 33.3 nM; under setting [2], 467 nM; under setting [3], 40.6 nM.

For “AGUACUAACACGUUAGUGUUAGUACAAUAAGCUUGUGAAACAUGAGGAUCACCCAUGUCCUCAUAAGCUCGUCUUAU [salish99_TOv2_r3_056] (Eterna round: R96, puzzle: Sensor v3, turn-off variant 2)”, the “apparent KD of MS2 coat protein” value reads like this: (input ligand: FMN 200 uM) 16 nM; under setting [4], 466 nM; (input ligand: none) 17.9 nM.

For “AGUACUAACACGUUAGUGUUAGUACAAUAAGCUUGUGAAACAUGAGGAUCACCCAUGUCCUCAUAAGCUCGUCUUAU [salish99_TOv2_r3_056] (puzzle: Sensor v3, turn-off variant 2)”, the “apparent KD of MS2 coat protein” value runs as follows: under setting [1], 16.7 nM; under setting [2], 645 nM; under setting [3], 16.1 nM.

“AGUACUAUCACGAAAGUGAUAGUACAAUAAGCAAGUGAAACAUGAGGAUCACCCAUGUCCUCAUUUGCUCGUCUUAU [JL turnoff v2 74] (Eterna round: R96, puzzle: Sensor v2, turn-off variant 2)”: the “apparent KD of MS2 coat protein” value runs as follows: (input ligand: FMN 200 uM) 16.7 nM; under setting [4], 400 nM; (input ligand: none) 19.1 nM.

Regarding “AGUACUAUCACGAAAGUGAUAGUACAAUAAGCAAGUGAAACAUGAGGAUCACCCAUGUCCUCAUUUGCUCGUCUUAU [salish99_TOv2_r3_200again] (puzzle: Sensor v3, turn-off variant 2)”, the “apparent KD of MS2 coat protein” value is, setting by setting: under setting [1], 17.8 nM; under setting [2], 749 nM; under setting [3], 17 nM.

As to “AGUACUAUGCGUGCUGACAUGCGUAGUGCAGCAGGUGUUACAUGAGGAUCACCCAUGUCCUCAUUUGCUCGUCUUAA [Mat - Sensor v3 - Turn-off var 2 - D16] (puzzle: Sensor v3, turn-off variant 2)”, the “apparent KD of MS2 coat protein” value is, setting by setting: under setting [1], 88 nM; under setting [2], 115 nM; under setting [3], 97.6 nM.

For the sequence “AGUAGGAGAGGAUAUACAAGAAGUCGAAAGACUUCAACUCAACAUGAGGAUCACCCAUGUAGAAGGCUCCUACA [Omei Ex2 BD A5] (Eterna round: R97, puzzle: Exclusion 2)”, the “apparent KD of MS2 coat protein” value (input ligand: FMN 200 uM) was found to be 83.3 nM and the “apparent KD of MS2 coat protein” value (input ligand: none) is 17.9 nM.

For the sequence “AGUAGUAGUAUCCGAUCCUACAUGAGGAUCACCCAUGUAGCUAGACGUGCACGCGAUGCUCGUCGGACUACCAGAUG [salish99_TOv1_r3_043] (puzzle: Sensor v3, turn-off variant 1)”, the “apparent KD of MS2 coat protein” value reads like this: under setting [1], 48 nM; under setting [2], 46.9 nM; under setting [3], 63.4 nM.

For “AGUAGUAGUAUCCGAUCCUACAUGAGGAUCACCCAUGUGGCUAGACGUGCACGCGAUGCUCGUCAGACUACCAGAUG [salish99_TOv1_r3_038] (puzzle: Sensor v3, turn-off variant 1)”, the “apparent KD of MS2 coat protein” value stood at 404 nM under setting [1], 269 nM under setting [2] and 506 nM under setting [3].

For the sequence “AGUAGUAGUAUCCGAUCCUACAUGAGGAUCACCCAUGUUGCUAGACGUGCACGCGAUGCUCGUCAGACUACCAGAUG [salish99_TOv1_r3_050] (puzzle: Sensor v3, turn-off variant 1)”, the “apparent KD of MS2 coat protein” value was found to be 326 nM under setting [1], 150 nM under setting [2] and 157 nM under setting [3].

On to “AGUAGUAGUAUCCGAUCUUACAUGAGGAUCACCCAUGUAUCUAGACGUGCACGCGAUGCUCGUCAGACUACCAGAUG [salish99_TOv1_r3_052] (puzzle: Sensor v3, turn-off variant 1)”, for which the “apparent KD of MS2 coat protein” value runs as follows: under setting [1], 49.3 nM; under setting [2], 66.3 nM; under setting [3], 60.1 nM.

As to “AGUAUGCGGCAGGAUAUCCAUCCGCGGAAAGGUGGAGAAGGGCUGACAUGAGGAUCACCCAUGUGCGUCCUGUA [salish99_ex6_r4_029] (Eterna round: R97, puzzle: Exclusion 6)”, the “apparent KD of MS2 coat protein” value is 33.5 nM (input ligand: FMN 200 uM) and 20.4 nM (input ligand: none).

Regarding “AGUCGAAAGACAAAUAAAAACAUGAGGAUCACCCAUGUAAUGGGUGAAAACAAGCUCACCGUUCGUCUUAAAGAAAA [JL turnoff v1 57] (Eterna round: R96, puzzle: Sensor v2, turn-off variant)”, the “apparent KD of MS2 coat protein” value (input ligand: FMN 200 uM) was 607 nM, the “apparent KD of MS2 coat protein” value under setting [4] was determined as 40.7 nM and the “apparent KD of MS2 coat protein” value (input ligand: none) was 302 nM.

As for “AGUCUGCUAGGAUAUACAUGAGGAUCACCCAUGUCUAUCAAUAGACUAUUAACCUGGUGUAGAAGGAGCUUGUA [Onatlacein] (puzzle: Exclusion 3)”, the “apparent KD of MS2 coat protein” value under setting [2] came out at 11.1 nM.

Turning to “AGUGCUAACACGUUGGUGUUAGUACCAUAAGCUUGUGAUACAUGAGGAUCACCCAUGUCCUCAUAAGCUCGUCUUAU [salish99_TOv2_r2_098] (puzzle: Sensor v3, turn-off variant 2)”, the “apparent KD of MS2 coat protein” value under setting [1] is 30.6 nM, the “apparent KD of MS2 coat protein” value under setting [2] was 508 nM and the “apparent KD of MS2 coat protein” value under setting [3] stood at 29.4 nM.

“AGUGUGUGGCAGGAUAUUCCGGUCGUUGGUCGGGAAGAAGGGUCUACAUGAGGAUCACCCAUGUGAGCGGUUGA [Ex6 #50] (Eterna round: R97, puzzle: Exclusion 6)”: the “apparent KD of MS2 coat protein” value runs as follows: (input ligand: FMN 200 uM) 489 nM; (input ligand: none) 379 nM.

With “AGUGUGUUAGGAUAUCGCAUAUGCUGGAGGAGGUGGAGUUACGAGAAGGAACAUGAGGAUCACCCAUGUAGGAC [JR_Exclu4_Sub050] (puzzle: Exclusion 4)”, under setting [2], the “apparent KD of MS2 coat protein” value turned out to be 25.7 nM.

Take “AGUUCACAUGAGGAUCACCCAUGUGAGGAUAUGGAUUCGCUGGCCGUAGCCAGUGGAUCCAGAAGGCGCGUGAU [JL-ex1-4.15] (Eterna round: R97, puzzle: Exclusion 1)”: the “apparent KD of MS2 coat protein” value by setting is: (input ligand: FMN 200 uM) 55.7 nM; (input ligand: none) 65.1 nM.

Take “AGUUGGCGAGGAUAUACAUGAGGAUCACCCAUGUGAAGAAGAAGAGUGAGGAAGAAAAGUAGAAGGCGCUGACA [Mat - Exclusion 3 - Mod of Salish D38] (puzzle: Exclusion 3)”: the “apparent KD of MS2 coat protein” value reads like this: under setting [1], 87.9 nM; under setting [2], 84 nM; under setting [3], 50.7 nM.

“AGUUGGCGAGGAUAUACAUGAGGAUCACCCAUGUGAGAGAAUAAAGUGAGAAAGAAAAGUAGAAGGCGCUGACG [Mat - Exclusion 3 - Mod of Salish D50] (puzzle: Exclusion 3)”: the “apparent KD of MS2 coat protein” value by setting is: under setting [1], 82.8 nM; under setting [2], 62.7 nM; under setting [3], 41.4 nM.

Take “AGUUGGCGAGGAUAUACAUGAGGAUCACCCAUGUGAGAGAUACUAGUGAGGUCGGUUAGUAGAAGGCGCUGACA [Mat X3R4 m16] (Eterna round: R97, puzzle: Exclusion 3)”: the “apparent KD of MS2 coat protein” value runs as follows: (input ligand: FMN 200 uM) 344 nM; (input ligand: none) 35.5 nM.

Take “AGUUGGCGAGGAUAUACAUGAGGAUCACCCAUGUGAGAGAUAGUAGUGAGGUCGAUUAGUAGAAGGCGCUGACA [Mat X3R4 m13] (Eterna round: R97, puzzle: Exclusion 3)”: the “apparent KD of MS2 coat protein” value is 278 nM (input ligand: FMN 200 uM) and 353 nM (input ligand: none).

The values are drawn from the supplement of paper PMC9170038.
